Data: publication PMC10352329

Key:
Experiment in all cases: ITC
[1] = target: H2B (1–27) unmodified peptide (Homo sapiens); conditions: domain or fragment; chains chain; fluorescently labeled with a His tag Labeling Kit (microscale thermophoresis only)
[2] = target: H4 (1–20) K5ac/K8ac peptide (Homo sapiens); conditions: domain or fragment
[3] = target: H4 (1–20) unmodified peptide (Homo sapiens); conditions: domain or fragment; chains chain; fluorescently labeled with a His tag Labeling Kit (microscale thermophoresis only)

H2B (1–27) unmodified peptide (Homo sapiens), sequence (main, as listed by the source): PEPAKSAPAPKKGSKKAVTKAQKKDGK

B1: human p300BRP (residues 1048–1282), wild type, Q09472 1048-1282 (protein)
chain: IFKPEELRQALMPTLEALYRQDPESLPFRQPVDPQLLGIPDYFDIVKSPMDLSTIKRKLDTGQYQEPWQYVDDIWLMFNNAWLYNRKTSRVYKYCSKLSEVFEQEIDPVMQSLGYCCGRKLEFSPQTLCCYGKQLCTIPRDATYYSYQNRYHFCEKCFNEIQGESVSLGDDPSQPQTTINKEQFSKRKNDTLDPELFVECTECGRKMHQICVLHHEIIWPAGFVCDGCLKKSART
Kd [1]: > 500 µM | Kd [2]: 240 µM | Kd [3]: > 500 µM
